Assay results published in PMC6428923.

Molecular target: GDP-bound KRAS4b-farnesyl (farnesylated, not carboxy-methylated) (UniProt P01116)
Assay: ITC

“calmodulin (CaM), full-length, amino acids 2-148 (from UniProt P0DP23 2-148) (natural protein)” showed a Kd of 1.5 µM.
